This experiment deals with firefly luciferase (firefly) [luciferase: P08659]. The experiment is described as follows: cell-based or functional assay.
firefly luciferase (firefly) [luciferase: P08659], sequence (P08659 whole entry): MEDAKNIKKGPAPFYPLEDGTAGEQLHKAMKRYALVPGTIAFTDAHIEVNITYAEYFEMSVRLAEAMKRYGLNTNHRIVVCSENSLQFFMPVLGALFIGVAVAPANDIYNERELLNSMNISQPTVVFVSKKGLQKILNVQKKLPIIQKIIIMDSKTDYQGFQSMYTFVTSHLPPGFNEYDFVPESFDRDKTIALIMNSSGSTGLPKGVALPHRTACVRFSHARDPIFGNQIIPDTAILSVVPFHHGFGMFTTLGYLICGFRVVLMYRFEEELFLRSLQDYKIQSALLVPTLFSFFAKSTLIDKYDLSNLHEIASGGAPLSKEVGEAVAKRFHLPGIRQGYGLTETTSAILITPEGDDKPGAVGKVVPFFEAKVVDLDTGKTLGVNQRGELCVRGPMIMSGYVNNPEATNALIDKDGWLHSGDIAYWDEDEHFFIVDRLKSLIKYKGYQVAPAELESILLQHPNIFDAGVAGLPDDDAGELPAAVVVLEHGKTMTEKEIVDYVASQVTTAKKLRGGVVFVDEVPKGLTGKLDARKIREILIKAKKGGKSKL

“grp170 as used in Examples 6 and 8 (source and species not stated)” registered a percent protein aggregation (light scattering, OD 320 nm, 43° C 30 min; luciferase heated alone = 100%) of 40%. Substance “hsp110 as used in Examples 6, 8 and 10 (source and species not stated)” returned a percent protein aggregation (light scattering, OD 320 nm, 43° C 30 min; luciferase heated alone = 100%) of 20%.
